From US20080193431

Target: T1, Ac-DEVD-CHO
T1 chain: DEVD

B1: caspase-3 (protein)
chain: SGISLDNSYKMDYPEMGLCIIINNKNFHKSTGMTSRSGTDVDAANLRETFRNLKYEVRNKNDLTREEIVELMRDVSKEDHSKRSSFVCVLLSHGEEGIIFGTNGPVDLKKITNFFRGDRCRSLTGKPKLFIIQACRGTELDCGIETDSGVDDDMACHKIPVEADFLYAYSTAPGYYSWRNSKDGSWFIQSLCAMLKQYADKLEFMHILTRVNRKVATEFESFSFDATFHAKKQIPCIVSMLTKELYFYH
  enzyme activity (caspase-3 cleavage of PPC, HPLC): completely blocked the enzyme activity
